Patent publication US20180280504A1, “GLYCAN-INTERACTING COMPOUNDS AND METHODS OF USE” (SIAMAB THERAPEUTICS, INC., priority 2014, published 2018)
Substitutions are numbered along the chain they refer to. Names may count otherwise. Read-outs that look alike come from different tables or passages of the source.

B1: S3F: 3F1 variable domains combined with IgG2a constant domains; heavy chain SEQ ID NO: 63, light chain SEQ ID NO: 64 (antibody)
heavy: QVQLQQSDAELVKPGASVKISCKASGYTFTDHAIHWVKQKPEQGLDWIGYISPGNGDIKYNEKFKDKVTLTADKSSSTACMHLNSLTSEDSAVYFCKRSLLALDYWGQGTTLTVSSAKTTAPSVYPLAPVCGDTTGSSVTLGCLVKGYFPEPVTLTWNSGSLSSGVHTFPAVLQSDLYTLSSSVTVTSSTWPSQSITCNVAHPASSTKVDKKIEPRGPTIKPCPPCKCPAPNLLGGPSVFIFPPKIKDVLMISLSPIVTCVVVDVSEDDPDVQISWFVNNVEVHTAQTQTHREDYNSTLRVVSALPIQHQDWMSGKEFKCKVNNKDLPAPIERTISKPKGSVRAPQVYVLPPPEEEMTKKQVTLTCMVTDFMPEDIYVEWTNNGKTELNYKNTEPVLDSDGSYFMYSKLRVEKKNWVERNSYSCSVVHEGLHNHHTTKSFSRTPGK
light: DIVMTQSHKFMSTSVGDRVSITCKASQDVGTNIAWYQQKPGRSPKVLIYSASTRHTGVPDRFTGSGSGTDFTLTISNVQSEDLTDYFCQQYSSFPLTFGVGTKLELKRADAAPTVSIFPPSSEQLTSGGASVVCFLNNFYPKDINVKWKIDGSERQNGVLNSWTDQDSKDSTYSMSSTLTLTKDEYERHNSYTCEATHKTSTSPIVKSFNRNEC
B2: 10A5: anti-STn mouse monoclonal, IgG2c κ, from mouse #4406; VH SEQ ID NO: 6, VL SEQ ID NO: 7 (antibody, V domains shown)
VH: QVQLKESGPGLVAPSQSLSITCTVSGFSLTSYGVSWVRQPPGKGLEWLGVIWGDGSTNYHSSLISRLSISKDNSKSQVFLKLNSLQTDDTATYYCARAFVYWGQGTLVTVSA
VL: QIVLTQSPAIMSASPGEKVTMTCSASSSVSYIHWYQQKSGTSPKRWIYDTSKLASGVPARFSGSGSGTSYSLTISSMEAEDAATYYCQQWSSNPPMLTFGAGTKLELK
B3: 8C11: anti-STn mouse monoclonal, IgG2b κ, from mouse #4407; VH SEQ ID NO: 8, VL SEQ ID NO: 9 (antibody, V domains shown)
VH: B2 VH with S62A, S68I, A96T, R97K, A98G, V100T
VL: QIVLTQSPAIMSASPGEKVTMTCSASSSVSYMHWYQQKSGTSPKRWIFDTSKLASGVPARFSGSGSGTSYSLTISSMEAEDAATYYCQQWSSNLLTFGAGTKLELK
B4: 2D4: anti-STn mouse monoclonal, IgG2b κ, from mouse #4407; VH SEQ ID NO: 10, VL SEQ ID NO: 11 (antibody, V domains shown)
VH: B2 VH with K5Q, T30I, S35N, H60Q, S62A, S68I, A96T, R97K, A98G, V100A
VL: B3 VL with Y35F, F48Y
B5: 7G9: anti-STn mouse monoclonal, IgG2b κ, from mouse #4407; VH SEQ ID NO: 12, VL SEQ ID NO: 9 (antibody, V domains shown)
VH: B2 VH with S17N, S35N, S62A, S68I, D72E, D88N, A96T, R97K, A98G
VL: B3 VL
B6: 18C7: anti-STn mouse monoclonal, IgG2c κ, from mouse #4436; VH SEQ ID NO: 4, VL SEQ ID NO: 5 (antibody, V domains shown)
VH: QVTLKESGPGILQPSQTLSLTCSFSGFSLSTFGMGVGWIRQPSGKGLEWLAHIWWDDDKYYNPALKSRLTISKDTSKNQVFLKIANVDTADTATYYCARIAYYYGSERDYWGQGTTLTVSS
VL: QIVLTQSPAIMSASPGEKVTMTCSASSSISYMHWYHQKPGTSPKRWIYDTSKLASGVPARFSGSGSGTSYSLTISSMEAEDAATYYCHQRSSYTFGGGTKLEIKR

Tests used:
MDA-MB-231-STn+ cells = experiment: Cell viability assay with secondary antibody-drug conjugate (2° ADC), STn+ cells; type: cell-based, human; settings: for IC50: MDA-MB-231-STn+ cells
Description: Cell viability assays are performed to screen anti-STn antibodies of the present invention in the presence and absence of secondary antibody-drug conjugates (2° ADCs). The purpose of the screen is to identify the ability of each anti-STn antibody to inhibit cell growth. Antibodies with potent cell growth inhibition are used to design direct antibody-drug conjugates (ADCs). Using such secondary antibody-drug conjugates (2° ADCs) in cell-based cytotoxic assays can quickly pre-screen many ADC candidates against tumor cells. Based on the assay, a naked antibody candidate is directly added to cells in the presence of a 2° ADC. Internalization of the mAb/2° ADC complex into cells that express a high density of the targeted antigen can achieve a dose-dependent drug release within the cells, causing a cytotoxic effect to kill the cells (e.g., tumor cells), while cells expressing a low density of the targeted antigen are not affected (e.g., normal cells).
To perform cell viability assays, cell lines described in the present application (MDA-MB-231 parental, MDA-MB-231-STn+, and OV-90) are prepared and cultured for the assays. The cell culture is optimized for cell density by plating different densities of cells (e.g., 2,000, 4,000 and 7,500 per well) on a 96-well plate and observing the cell growth for 96 hours. The plating condition in which cells reach around 90% confluence at the end of the 96 hours is identified and the optimal cell number is then used in the final viability assay.
Duplicate or triplicate cell plates for each cell line are used for testing each antibody candidate.
For cell viability assays, data points are collected for each antibody candidate with duplicates for each data point. Each antibody candidate is diluted in serial concentrations from 0.3 pM to 20 nM.
Alternatively, data points are collected for each antibody candidate with triplicates for each data point. Each antibody candidate is diluted in serial concentrations from 1 pM to 20 nM.
Cell viabilities are measured by Cell-Titer Glo luminescence based assays.
Three anti-STn monoclonal antibodies (anti-STn antibodies S3F, 7G9 and 2D4) and an anti-EGFR monoclonal antibody LA22 were tested for internalization. Six plates of cell culture, two per cell line (MDA-MB-231 parental, MDA-MB-231-STn+, and OV-90), were used to assay the antibody candidates. Each plate can be used to assay the four antibody candidates simultaneously. A secondary anti-IgG antibody conjugated to MMAF (monomethyl auristatin phenylalanine), a non-permeable Aurastatin analog, was used as the 2° ADC. Cell viability was then measured using CellTitreGlo Luminescent Cell Viability Assay (Promega, Madison, Wis.).

[1] = tested on: STn on bovine submaxillary mucin (BSM); experiment: Anti-STn BSM ELISA, non-treated and periodate-treated wells; type: binding; settings: for hybridoma screening: specificity for STn: BSM ELISA without and after periodate treatment
Description: Anti-STn serum titer is determined using a murine anti-STn bovine submaxillary mucin (BSM) ELISA together with serum profiles observed by glycan microarray. 96-well plates are coated with 1 μg/well of BSM and incubated overnight at 4° C. O-acetylation of BSM antigen is removed by treating wells with 0.1 M sodium hydroxide. Specific binding to STn is determined by treatment of wells with sodium periodate. Periodate treatment destroys the […] side chain of sialic acid; therefore antibodies raised against STn should not bind to periodate-treated wells. Wells are blocked with PBS 1% ovalbumin (OVA). Serum samples to be assayed are serially diluted in PBS 1% OVA. A commercially available mouse anti-STn monoclonal antibody, 3F1 (SBH Sciences, Natick, Mass.) is used as a positive control. This antibody is also serially diluted in PBS with 1% OVA. A pool of serum from naïve wild type mice is used for the preparation of negative control samples. Detection of anti-STn antibodies present in serum is determined using an HRP-conjugated polyclonal goat anti-mouse IgG antibody (Jackson Immunoresearch, West Grove, Pa.). The reaction is stopped by addition of sulfuric acid (1.6 M). Optical densities are measured at 490 nm using a Spectramax microplate reader (Molecular Devices, Sunnyvale, Calif.). The serum titer is obtained by comparison of OD values with a cutoff value calculated as two standard deviations above the mean of optical density values of the negative control. Sample tests are considered positive if the mean optical density value is greater than the cutoff value.
Binding affinities of 18D2 and 18C7 to STn were compared to commercially available anti-STn antibodies using the BSM ELISA assay described in Example 2. Commercial anti-STn antibodies used for comparison included 3F1 (SBH Sciences, Natick, Mass.,) TAG-72 clone B72.3 (Thermo Fisher Scientific, Waltham, Mass.,) TAG-72 clone CC49 (Santa Cruz Biotechnology, Santa Cruz, Calif.) as well as a negative control antibody against c-myc (Thermo Fisher Scientific, Waltham, Mass.). Each antibody was titrated using a 7-point, 1:5 serial dilution starting from 100 nM. Titrated antibodies were added to BSM ELISA plates containing wells that were non-treated or treated with sodium periodate. Antibody binding was determined using HRP-conjugated polyclonal goat anti-mouse IgG antibody (Jackson Immunoresearch Laboratories, West Grove, Pa.). The reaction was developed using an HRP substrate and stopped with 1.6 M sulfuric acid. Optical densities were measured at 490 nm using a Spectramax microplate reader. […] The half maximal effective concentration (EC50) for each antibody was calculated using a non-linear regression analysis carried out on periodate subtracted data.

[2] = with 2° ADC Fab αMFc-CL-MMAF, CellTitreGlo, read-out: IC50 (nM), secondary internalization assay

Row | Molecule | IC50 (MDA-MB-231-STn+ cells; unit inferred, b641, read-out: IC50 in the presence of Fab αMFc-CL-MMAF) [nM] | IC50 (MDA-MB-231-STn+ cells; [2]) [nM] | activity in MDA-MB-231-STn+ cells (MDA-MB-231-STn+ cells; with 2° ADC Fab αMFc-CL-MMAF) | hybridoma screening: specificity for STn [1] | binding to non-treated wells ([1]; BSM ELISA, wells not treated with sodium periodate) | binding to periodate-treated wells ([1]; BSM ELISA, wells treated with sodium periodate) | EC50 ([1]; non-linear regression on periodate subtracted data, 7-point 1:5 dilution from 100 nM) [nM]
1 | B1 | 0.124 | 0.058 | demonstrate activity |  |  |  | 
2 | B2 |  |  |  | specific for STn |  |  | 
3 | B3 |  |  |  | specific for STn |  |  | 
4 | B4 |  | 0.056 | demonstrate activity | specific for STn |  |  | 
5 | B5 |  | 0.181 | demonstrate activity | specific for STn |  |  | 
6 | B6 |  |  |  | specific for STn | bound non-treated wells | did not bind to periodate-treated wells | 62.5
